Measured values from article doi:10.1101/2024.03.08.584019.

Molecular target: GNNV-P R276A (Dragon grouper (Epinephelus lanceolatus) nervous necrosis virus)
Test: AUC

Which stoichiometry N does the source give for GNNV-P R276A (domain or fragment) here?
Its stoichiometry N is 3.
